From the supplement of paper PMC12783771
± gives the standard deviation of the averaged measurements.

B1: library; numbered along this chain (parent)
chain: MNIQIGELAKRTACPVVTIRFYEQEGLLPPPGRSRGNFRLYGEEHVERLQFIRHCRSLDMPLSDVRTLLSYRKRPDQDCGEVNMLLDEHIRQVESRIGALLELKHHLVELREACSGARPAQSCGILQGLSDCVCDTRGTTAHPSD

Columns and labels:
[1] = variants of: B1; assay: sfGFP reporter fluorescence (15 h) (µM FITC); higher = higher leak; conditions: library round: Round 0; ligand: none
Summary of the method: (§1)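 An Echo normalized PCR-made linear PbrR templates to 5 nM and assembled 1 μL reactions in BL21 Star (DE3) PANOx-SP extract carrying the pPbrR-sfGFP reporter plasmid and 30 μg/mL GamS. Reactions received 1 µM lead chloride, 30 µM zinc acetate or no metal and stood 15 hr at 30 °C. Fluorescence at 485/528 nm (Synergy Neo2) was converted with FITC standard curves made in 50 mM sodium borate pH 8.5. Endpoint sfGFP signal is given in µM FITC, from up to three biological replicates.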

[2] = variants of: B1; assay: sfGFP reporter fluorescence (15 h) (µM FITC); higher = stronger transcriptional activation; conditions: library round: Round 0
Summary of the method: as §1

Row | Variant | sfGFP reporter fluorescence [1] | sfGFP reporter fluorescence ([2]; ligand: 1 µM Pb) | sfGFP reporter fluorescence ([2]; ligand: 30 µM Zn)
1 | I125A | 0.0572 ± 0.0042 | 0.0553 ± 0.0021 | 0.0585 ± 0.0023
2 | I125Q | 0.0588 ± 0.00078 | 0.0597 ± 0.0015 | 0.055 ± 0.0021
3 | C123P | 0.0559 ± 0.00078 | 0.05772 ± 0.00026 | 0.0526 ± 0.00078
4 | C123Q | 0.0585 ± 0.00078 | 0.05809 ± 0.00026 | 0.0546 ± 0.0015
5 | C123V | 0.05589 ± 0.00026 | 0.0579 ± 0.0015 | 0.0541 ± 0.0018
6 | L107T | 0.0797 ± 0.0054 | 0.282 ± 0.015 | 1.93 ± 0.22
7 | L107R | 0.059 ± 0.001 | 0.055 ± 0.0021 | 0.0781 ± 0.0031
8 | L107P | 0.0568 ± 0.0015 | 0.0528 ± 0.0052 | 0.0621 ± 0.0018
9 | L107S | 0.12 ± 0.0091 | 0.5454 ± 0.0042 | 2.27 ± 0.042
10 | M60L P61N D64K | 0.611 ± 0.025 | 1.74 ± 0.19 | 3.74 ± 0.11
11 | M1A | 0.0618 ± 0.0029 | 0.0715 ± 0.0047 | 0.124 ± 0.0015
12 | E7D | 0.0592 ± 0.0018 | 0.0823 ± 0.006 | 1.08 ± 0.044
13 | E7S | 0.0625 ± 0.0018 | 0.087 ± 0.0044 | 0.999 ± 0.052
14 | E7W | 0.0608 ± 0.0015 | 0.06359 ± 0.00026 | 0.19 ± 0.0023
15 | E7P | 0.061 ± 0.0013 | 0.0709 ± 0.00078 | 0.3319 ± 0.0018
16 | E7I | 0.059 ± 0.001 | 0.0759 ± 0.0031 | 0.696 ± 0.014
17 | R20Q | 0.06212 ± 0.00026 | 0.0607 ± 0.00078 | 0.074 ± 0.0031
18 | R20G | 0.05864 ± 0.00052 | 0.0563 ± 0.0018 | 0.0625 ± 0.0034
19 | R20K | 0.0623 ± 0.001 | 0.0625 ± 0.0018 | 0.064 ± 0.00078
20 | R20C | 0.063 ± 0.0015 | 0.0618 ± 0.00078 | 0.0634 ± 0.001
21 | R20S | 0.0634 ± 0.0021 | 0.061 ± 0.0023 | 0.063
22 | R20M | 0.0607 ± 0.00078 | 0.06066 ± 0.00026 | 0.0605 ± 0.0021
23 | R20P | 0.06285 ± 0.00026 | 0.05974 ± 0.00052 | 0.0673 ± 0.0013

Row | Variant | sfGFP reporter fluorescence [1] | sfGFP reporter fluorescence ([2]; ligand: 1 µM Pb) | sfGFP reporter fluorescence ([2]; ligand: 30 µM Zn)
24 | F21R | 0.0645 | 0.06212 ± 0.00026 | 0.0685 ± 0.0021
25 | F21E | 0.0596 ± 0.00078 | 0.06175 ± 0.00026 | 0.0608 ± 0.0015
26 | F21S | 0.06341 ± 0.00052 | 0.0608 ± 0.001 | 0.06304 ± 0.00052
27 | V108S | 0.0568 ± 0.0026 | 0.0696 | 0.772 ± 0.061
28 | V108C | 0.0594 ± 0.0026 | 0.0788 ± 0.0015 | 1.04 ± 0.091
29 | V108N | 0.0574 ± 0.0013 | 0.06414 ± 0.00052 | 0.611 ± 0.073
30 | L110Q | 0.0555 ± 0.0013 | 0.057 ± 0.00078 | 0.05589 ± 0.00026
31 | L110V | 0.0601 ± 0.0021 | 0.06634 ± 0.00052 | 0.502 ± 0.065
32 | L110N | 0.0579 | 0.05791 ± 0.00052 | 0.0627
33 | L110C | 0.05754 ± 0.00052 | 0.0577 ± 0.00078 | 0.0766 ± 0.0042
34 | I90C | 0.0592 ± 0.0018 | 0.0656 ± 0.00052 | 0.568 ± 0.012
35 | I90E | 0.0579 ± 0.0042 | 0.05791 ± 0.00052 | 0.0977 ± 0.0018
36 | I90H | 0.0619 ± 0.0036 | 0.0898 ± 0.0021 | 0.755 ± 0.0078
37 | I90G | 0.0535 ± 0.0031 | 0.0577 ± 0.00078 | 0.222 ± 0.0086
38 | D135M | 0.0636 ± 0.0018 | 0.09639 ± 0.00052 | 2.2 ± 0.33
39 | D135N | 0.0588 ± 0.0034 | 0.0847 ± 0.0078 | 1.18 ± 0.32
40 | D135P | 0.0557 ± 0.0036 | 0.0826 ± 0.0049 | 0.672 ± 0.09
41 | D135F | 0.0718 ± 0.001 | 0.138 ± 0.0065 | 1.49 ± 0.28
42 | R33V | 0.0607 ± 0.00078 | 0.05937 ± 0.00052 | 0.0696 ± 0.0021
43 | R33C | 0.0592 ± 0.00078 | 0.0607 ± 0.0023 | 0.0612 ± 0.0021
44 | R33L | 0.0605 ± 0.001 | 0.06175 ± 0.00026 | 0.108 ± 0.0042
45 | R33A | 0.0614 ± 0.0023 | 0.0594 | 0.0625 ± 0.00078
46 | R33M | 0.0629 ± 0.0013 | 0.0625 ± 0.0013 | 0.0619 ± 0.0015

Row | Variant | sfGFP reporter fluorescence [1] | sfGFP reporter fluorescence ([2]; ligand: 1 µM Pb) | sfGFP reporter fluorescence ([2]; ligand: 30 µM Zn)
47 | L85A | 0.05864 ± 0.00052 | 0.0559 ± 0.0023 | 0.07183 ± 0.00052
48 | L85V | 0.0585 ± 0.0018 | 0.0594 ± 0.0026 | 0.1479 ± 0.0013
49 | L85R | 0.0596 ± 0.0018 | 0.0577 ± 0.00078 | 0.0652 ± 0.001
50 | L85I | 0.0577 ± 0.00078 | 0.06853 ± 0.00052 | 0.6194 ± 0.0057
51 | T12A | 0.0564 ± 0.0026 | 0.0733 ± 0.0015 | 0.611 ± 0.019
52 | I52A | 0.06341 ± 0.00052 | 0.0596 ± 0.0023 | 0.077 ± 0.0015
53 | M60L L107C G128I | 2.19 ± 0.17 | 3.42 ± 0.14 | 2.98 ± 0.17
54 | V16Q | 0.0663 ± 0.0031 | 0.112 ± 0.0083 | 1.425 ± 0.0039
55 | E112T | 0.0605 | 0.0804 ± 0.0029 | 0.857 ± 0.06
56 | E112G | 0.0586 ± 0.0026 | 0.0847 ± 0.0042 | 1.23 ± 0.12
57 | E112L | 0.0603 ± 0.00078 | 0.0867 ± 0.0034 | 0.851 ± 0.048
58 | E112P | 0.0557 ± 0.001 | 0.057 ± 0.00078 | 0.0561
59 | E112A | 0.063 ± 0.0021 | 0.0929 ± 0.0039 | 1.31 ± 0.092
60 | E112W | 0.0579 ± 0.0015 | 0.0627 ± 0.001 | 0.152 ± 0.014
61 | E112Y | 0.05919 ± 0.00026 | 0.06395 ± 0.00026 | 0.198 ± 0.028
62 | P61N L107C G128M | 3.31 ± 0.13 | 4.37 ± 0.48 | 5.17 ± 0.11
63 | P61N L107C G128I | 1.6 ± 0.35 | 2.91 ± 0.12 | 3.99 ± 0.4
64 | C134D | 0.06157 ± 0.00052 | 0.0684 ± 0.0018 | 1.004 ± 0.008
65 | N83K | 0.0603 ± 0.0034 | 0.0663 ± 0.0015 | 0.07532 ± 0.00026
66 | N83Q | 0.06487 ± 0.00052 | 0.0693 | 1.55 ± 0.4
67 | N83C | 0.0601 ± 0.0021 | 0.114 ± 0.016 | 0.0649 ± 0.0015
68 | N83W | 0.059 ± 0.0031 | 0.0748 ± 0.0042 | 0.0619
69 | N83E | 0.0612 ± 0.001 | 0.0612 ± 0.0015 | 0.141 ± 0.0023

Row | Variant | sfGFP reporter fluorescence [1] | sfGFP reporter fluorescence ([2]; ligand: 1 µM Pb) | sfGFP reporter fluorescence ([2]; ligand: 30 µM Zn)
70 | N83R | 0.0625 ± 0.00078 | 0.0775 ± 0.0065 | 0.0883 ± 0.0021
71 | D64K G128M | 0.806 ± 0.04 | 1.86 ± 0.25 | 4.98 ± 0.34
72 | K104S | 0.0612 ± 0.0021 | 0.092 ± 0.02 | 1 ± 0.052
73 | K104W | 0.0574 ± 0.0096 | 0.0795 ± 0.013 | 0.607 ± 0.096
74 | K104D | 0.0592 ± 0.006 | 0.138 ± 0.046 | 1.06 ± 0.18
75 | K104G | 0.0526 ± 0.0075 | 0.0524 ± 0.0057 | 0.22 ± 0.0034
76 | Y41S | 0.0603 ± 0.00078 | 0.0612 ± 0.0021 | 0.0616 ± 0.0015
77 | P61N D64K G128M | 1.01 ± 0.069 | 2.17 ± 0.97 | 4.15 ± 0.24
78 | L27W | 0.0616 ± 0.0036 | 0.0623 | 0.0638
79 | L27E | 0.0603 ± 0.0013 | 0.0616 ± 0.0015 | 0.0577 ± 0.00078
80 | L27S | 0.0623 ± 0.00052 | 0.0621 ± 0.00078 | 0.0647 ± 0.0029
81 | L58Q | 0.0596 ± 0.0018 | 0.05901 ± 0.00052 | 0.0711 ± 0.0021
82 | L58V | 0.0583 ± 0.001 | 0.0568 ± 0.0021 | 0.061 ± 0.0018
83 | L58C | 0.05846 ± 0.00026 | 0.05772 ± 0.00026 | 0.06121 ± 0.00052
84 | L58E | 0.0619 ± 0.001 | 0.0625 ± 0.0013 | 0.064 ± 0.0018
85 | P143E | 0.0563 ± 0.00078 | 0.0696 ± 0.0026 | 0.635 ± 0.04
86 | P143H | 0.0585 ± 0.0018 | 0.0786 ± 0.0013 | 0.764 ± 0.072
87 | P143M | 0.05736 ± 0.00026 | 0.0799 ± 0.001 | 0.812 ± 0.12
88 | D131F | 0.0596 ± 0.0013 | 0.0821 ± 0.0057 | 0.723 ± 0.048
89 | D131W | 0.05699 ± 0.00026 | 0.07275 ± 0.00026 | 0.356 ± 0.046
